Experimental findings from patent US20200079833A1 (AstraZeneca / MedImmune, published 2020) are described below.

Non-standard residues stand in square brackets, D forms with d. Groups on a side chain read outwards from the residue. Primed or numbered codes have the meaning given here. No end group written: not given here. *: point of attachment. αMeF = C[C@](N)(Cc1ccccc1)C(=O)O; αMeK = C[C@](N)(CCCCN)C(=O)O; Lauroyl = CCCCCCCCCCCC(=O)*; αMeS = C[C@](N)(CO)C(=O)O; PEG2′ = not defined here; Aib = CC(C)(N)C(=O)O; Ahx = NCCCCCC(=O)O

Holding throughout (experiment): cell-based or functional assay
One assay addresses GLP-1 receptor (GLP-1R) (human, UniProt P43220 24-463).
The target in the next assay is glucagon receptor (GCGR) (human, UniProt P47871 26-477).
Assay [1] concerns the target T1, glucose-dependent insulinotropic peptide (gastric inhibitory polypeptide) receptor (GIPR) (human, UniProt P48546 22-466).
T1 sequence (looked up): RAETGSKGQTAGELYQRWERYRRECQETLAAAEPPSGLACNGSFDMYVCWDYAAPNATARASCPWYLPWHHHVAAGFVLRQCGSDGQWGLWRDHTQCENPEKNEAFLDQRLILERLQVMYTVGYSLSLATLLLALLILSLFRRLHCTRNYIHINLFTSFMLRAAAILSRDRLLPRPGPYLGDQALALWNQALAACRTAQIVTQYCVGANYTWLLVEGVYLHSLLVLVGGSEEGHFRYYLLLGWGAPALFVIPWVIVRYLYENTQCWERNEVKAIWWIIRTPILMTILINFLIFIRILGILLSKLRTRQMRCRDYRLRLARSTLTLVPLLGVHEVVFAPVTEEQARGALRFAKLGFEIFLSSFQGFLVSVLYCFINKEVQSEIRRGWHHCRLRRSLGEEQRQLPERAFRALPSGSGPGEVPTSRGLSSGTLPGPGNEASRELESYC

Chain of glucagon receptor (GCGR) (P47871 26-477): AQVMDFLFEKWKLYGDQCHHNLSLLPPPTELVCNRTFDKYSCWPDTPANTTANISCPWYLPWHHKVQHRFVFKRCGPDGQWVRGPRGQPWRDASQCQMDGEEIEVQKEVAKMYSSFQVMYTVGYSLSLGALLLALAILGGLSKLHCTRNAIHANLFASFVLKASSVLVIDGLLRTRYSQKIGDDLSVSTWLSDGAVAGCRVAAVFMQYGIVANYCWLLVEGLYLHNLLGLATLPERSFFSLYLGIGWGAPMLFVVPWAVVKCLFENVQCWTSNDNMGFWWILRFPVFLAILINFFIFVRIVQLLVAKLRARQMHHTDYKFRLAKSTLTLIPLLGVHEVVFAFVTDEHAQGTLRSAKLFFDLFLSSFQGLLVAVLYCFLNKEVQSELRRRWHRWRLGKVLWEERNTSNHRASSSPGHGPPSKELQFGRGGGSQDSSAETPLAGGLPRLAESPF

Consider H[Aib]EGS[αMeF]TSDV[αMeS]S[αMeF]LEGEAAK([PEG2′-Lauroyl])E[αMeF]IA[αMeF]VV[αMeK]GG-NH2 [SEQ ID NO 134], for which, in the assay with GLP-1 receptor (GLP-1R), the “cAMP Mean pM GLP-1R” value is 6 pM, the “cAMP Primary assay EC50 GLP-1R n1” value worked out at 0.007 nM and the “cAMP Primary assay EC50 GLP-1R n2” value stood at 0.0049 nM. Moreover, in the assay with glucagon receptor (GCGR), the “cAMP Primary assay EC50 Gluc-R” value was found to be 28 nM and the “cAMP Primary assay EC50 Gluc-R (2nd)” value stood at 28 nM. For the same molecule, in assay [1], the “cAMP Primary assay EC50 GIP-R” value amounted to 28 nM and the “cAMP Primary assay EC50 GIP-R (2nd)” value was found to be 28 nM.
Take H[Aib]EGS[αMeF]TSDV[αMeS]S[αMeF]LEGEAAK([PEG2′-PEG2′-PEG2′-Lauroyl])E[αMeF]IA[αMeF]VV[αMeK]GG-NH2 [SEQ ID NO 136]: in the assay with GLP-1 receptor (GLP-1R), the “cAMP Mean pM GLP-1R” value came out at 3 pM, the “cAMP Primary assay EC50 GLP-1R n1” value amounted to 0.0035 nM and the “cAMP Primary assay EC50 GLP-1R n2” value came out at 0.0025 nM. For the same molecule, in the assay with glucagon receptor (GCGR), the “cAMP Primary assay EC50 Gluc-R” value was found to be 26 nM and the “cAMP Primary assay EC50 Gluc-R (2nd)” value worked out at 26 nM. In assay [1], the “cAMP Primary assay EC50 GIP-R” value worked out at 26 nM and the “cAMP Primary assay EC50 GIP-R (2nd)” value came out at 26 nM.

B1: SEQ ID NO 132 (peptide)
peptide: H[Aib]EGS[αMeF]TSDV[αMeS]S[αMeF]LEGEAAK([Ahx-Ahx-Lauroyl])E[αMeF]IA[αMeF]VV[αMeK]GG-NH2
modifications: N-terminus assumed
SMILES: CCCCCCCCCCCC(=O)NCCCCCC(=O)NCCCCCC(=O)NCCCC[C@H](NC(=O)[C@H](C)NC(=O)[C@H](C)NC(=O)[C@H](CCC(=O)O)NC(=O)CNC(=O)[C@H](CCC(=O)O)NC(=O)[C@H](CC(C)C)NC(=O)[C@](C)(Cc1ccccc1)NC(=O)[C@H](CO)NC(=O)[C@](C)(CO)NC(=O)[C@@H](NC(=O)[C@H](CC(=O)O)NC(=O)[C@H](CO)NC(=O)[C@@H](NC(=O)[C@](C)(Cc1ccccc1)NC(=O)[C@H](CO)NC(=O)CNC(=O)[C@H](CCC(=O)O)NC(=O)C(C)(C)NC(=O)[C@@H](N)Cc1c[nH]cn1)[C@@H](C)O)C(C)C)C(=O)N[C@@H](CCC(=O)O)C(=O)N[C@@](C)(Cc1ccccc1)C(=O)N[C@H](C(=O)N[C@@H](C)C(=O)N[C@@](C)(Cc1ccccc1)C(=O)N[C@H](C(=O)N[C@H](C(=O)N[C@@](C)(CCCCN)C(=O)NCC(=O)NCC(N)=O)C(C)C)C(C)C)[C@@H](C)CC
As to B1, in the assay with GLP-1 receptor (GLP-1R), the “cAMP Mean pM GLP-1R” value came out at 9 pM, the “cAMP Primary assay EC50 GLP-1R n1” value stood at 0.011 nM and the “cAMP Primary assay EC50 GLP-1R n2” value is 0.0071 nM. In the assay with glucagon receptor (GCGR), the “cAMP Primary assay EC50 Gluc-R” value came to 28 nM and the “cAMP Primary assay EC50 Gluc-R (2nd)” value turned out to be 28 nM. Moreover, in assay [1], the “cAMP Primary assay EC50 GIP-R” value was determined as 28 nM and the “cAMP Primary assay EC50 GIP-R (2nd)” value stood at 28 nM.

B2: SEQ ID NO 133 (peptide)
peptide: H[Aib]EGS[αMeF]TSDV[αMeS]S[αMeF]LEGEAAK([Ahx-Ahx-Ahx-Lauroyl])E[αMeF]IA[αMeF]VV[αMeK]GG-NH2
modifications: N-terminus assumed
SMILES: CCCCCCCCCCCC(=O)NCCCCCC(=O)NCCCCCC(=O)NCCCCCC(=O)NCCCC[C@H](NC(=O)[C@H](C)NC(=O)[C@H](C)NC(=O)[C@H](CCC(=O)O)NC(=O)CNC(=O)[C@H](CCC(=O)O)NC(=O)[C@H](CC(C)C)NC(=O)[C@](C)(Cc1ccccc1)NC(=O)[C@H](CO)NC(=O)[C@](C)(CO)NC(=O)[C@@H](NC(=O)[C@H](CC(=O)O)NC(=O)[C@H](CO)NC(=O)[C@@H](NC(=O)[C@](C)(Cc1ccccc1)NC(=O)[C@H](CO)NC(=O)CNC(=O)[C@H](CCC(=O)O)NC(=O)C(C)(C)NC(=O)[C@@H](N)Cc1c[nH]cn1)[C@@H](C)O)C(C)C)C(=O)N[C@@H](CCC(=O)O)C(=O)N[C@@](C)(Cc1ccccc1)C(=O)N[C@H](C(=O)N[C@@H](C)C(=O)N[C@@](C)(Cc1ccccc1)C(=O)N[C@H](C(=O)N[C@H](C(=O)N[C@@](C)(CCCCN)C(=O)NCC(=O)NCC(N)=O)C(C)C)C(C)C)[C@@H](C)CC
As for B2, in the assay with GLP-1 receptor (GLP-1R), the “cAMP Mean pM GLP-1R” value was 29.4 pM, the “cAMP Primary assay EC50 GLP-1R n1” value came out at 0.034 nM and the “cAMP Primary assay EC50 GLP-1R n2” value is 0.025 nM. Moreover, in the assay with glucagon receptor (GCGR), the “cAMP Primary assay EC50 Gluc-R” value is 27 nM and the “cAMP Primary assay EC50 Gluc-R (2nd)” value was 27 nM. Also, in assay [1], the “cAMP Primary assay EC50 GIP-R” value worked out at 27 nM and the “cAMP Primary assay EC50 GIP-R (2nd)” value worked out at 27 nM.

B3: SEQ ID NO 131 (peptide)
peptide: H[Aib]EGS[αMeF]TSDV[αMeS]S[αMeF]LEGEAAK([Ahx-Lauroyl])E[αMeF]IA[αMeF]VV[αMeK]GG-NH2
modifications: N-terminus assumed
SMILES: CCCCCCCCCCCC(=O)NCCCCCC(=O)NCCCC[C@H](NC(=O)[C@H](C)NC(=O)[C@H](C)NC(=O)[C@H](CCC(=O)O)NC(=O)CNC(=O)[C@H](CCC(=O)O)NC(=O)[C@H](CC(C)C)NC(=O)[C@](C)(Cc1ccccc1)NC(=O)[C@H](CO)NC(=O)[C@](C)(CO)NC(=O)[C@@H](NC(=O)[C@H](CC(=O)O)NC(=O)[C@H](CO)NC(=O)[C@@H](NC(=O)[C@](C)(Cc1ccccc1)NC(=O)[C@H](CO)NC(=O)CNC(=O)[C@H](CCC(=O)O)NC(=O)C(C)(C)NC(=O)[C@@H](N)Cc1c[nH]cn1)[C@@H](C)O)C(C)C)C(=O)N[C@@H](CCC(=O)O)C(=O)N[C@@](C)(Cc1ccccc1)C(=O)N[C@H](C(=O)N[C@@H](C)C(=O)N[C@@](C)(Cc1ccccc1)C(=O)N[C@H](C(=O)N[C@H](C(=O)N[C@@](C)(CCCCN)C(=O)NCC(=O)NCC(N)=O)C(C)C)C(C)C)[C@@H](C)CC
Take B3: in the assay with GLP-1 receptor (GLP-1R), the “cAMP Mean pM GLP-1R” value came to 11.7 pM, the “cAMP Primary assay EC50 GLP-1R n1” value is 0.014 nM and the “cAMP Primary assay EC50 GLP-1R n2” value amounted to 0.0099 nM. Also, in the assay with glucagon receptor (GCGR), the “cAMP Primary assay EC50 Gluc-R” value was 29 nM and the “cAMP Primary assay EC50 Gluc-R (2nd)” value came out at 29 nM. Besides, in assay [1], the “cAMP Primary assay EC50 GIP-R” value worked out at 29 nM and the “cAMP Primary assay EC50 GIP-R (2nd)” value was found to be 29 nM.
H[Aib]EGS[αMeF]TSDV[αMeS]S[αMeF]LEGEAAK([PEG2′-PEG2′-Lauroyl])E[αMeF]IA[αMeF]VV[αMeK]GG-NH2 [SEQ ID NO 135]: in the assay with GLP-1 receptor (GLP-1R), the “cAMP Mean pM GLP-1R” value turned out to be 5 pM, the “cAMP Primary assay EC50 GLP-1R n1” value is 0.0054 nM and the “cAMP Primary assay EC50 GLP-1R n2” value is 0.0045 nM. Besides, in the assay with glucagon receptor (GCGR), the “cAMP Primary assay EC50 Gluc-R” value came out at 27 nM and the “cAMP Primary assay EC50 Gluc-R (2nd)” value came out at 27 nM. Besides, in assay [1], the “cAMP Primary assay EC50 GIP-R” value was found to be 27 nM and the “cAMP Primary assay EC50 GIP-R (2nd)” value was 27 nM.
